From the domain aggregation screens of Martell et al. (2025)

experiment: soluble fraction after stress (log2 fold change); higher = more stays soluble; pooled small domains, quantitative proteomics; settings: stress: 50 degC
Summary of the method: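 Pooled custom libraries of small protein domains were measured in a high-throughput format, with quantitative proteomics as the read-out. Each library was stressed at 50°C. Aggregation propensity is given as the base-two logarithm of the fold change in how much of each protein stays soluble after the stress. Higher values mean a larger share of the protein remains in solution.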

| Sequence | soluble fraction (log2) |
| --- | --- |
| HMELLPFEFARANRVLLRVNESDLVVSPDANHSAVTEILRLNNNIETIKSVDAEAFDKILSSIYSG | -0.765 |
| HMGETRWTYDDFGNILTEKAAPYSATEFLGKTYTYDTDNRYLKTVTDALGRTTTTLSYDKYGNPLSVMD | 0.101 |
| HMEGVNLTVQEAKQMAAIIAPLLKQGQSPYQIVTNHPELGISEKTLYNYIENDVFHEIAGITVMDL | -0.365 |
| HMFKNWMPFDEARIFVRKLKFNSHDEFRKYLKANEINIPSKPWSTYKGKGWVSIGDFLGTHR | -2.82 |
| HMGKLYRDRYAPLEPDGARAGDRVFIISLEKEGTLERIDLPRKTATVLLGSSIRSTFPLDDLYQPRG | 0.0151 |
| HMNTGTTISYSDFRDRVASGTVKEVQISDDRITGVLKNDETFNTVPVGNDSGLTKLLDDNGVTYSGTP | 0.174 |
| HMQVLSESDVEDIKAISGGDKAYDNLMEWAGSKLSKQDAKDYDDVLATGNKTAITFAVKALMAQYENAN | -0.299 |
| HMVQVPSLVGISEIEAKTLLTQAGFFVKIVEVFDANQPVGIVLAQAPSAGESRIIGSPVTITVNKAQ | -0.867 |
| HMSKHATLLEALADLSVKLKPHSQLPSERALSEEYGVSRMTLRRAIDVLQARGYIYSVPSKGLFVSEP | -1.74 |
| HMKTEIKSPLPGIVLKIFVRTGEYVDKNQRLFSLEAMKMENEIKAERAGVIAGIRISEGQSVLQDEVIMEM | -0.297 |
| HMFDDLSTNLRDLAHNYIEKYSPSKQQLKVFLLKKYLMKFKGSKTKKEISEIIDKIISNLEENKYLNDEL | 0.0632 |
| HMIKRNPLDEIEGVGPGRKKALLHAFGSAKGVSRASVVDLVKVEGVSQALAERIHDFFHPATR | -0.113 |
| HMSDHYEVLGVDRNATDDQIKKAYRRLARELHPDVNDAPESQEKFKLVTHAYEVLSDPDERRKYDMG | 0.0925 |
| HMINITALVKQLGGVDISKFNSAFKLLQQGKPLNTISNKVMADTFVALMKNSDEALNTKFRAAFKKI | -0.272 |
| HMGIGSTLTDGVRVYASDDEIVVNAPAESDVRIFNAGGAQLYAGRVADVRVAVAKGLYVVTVDGRSTKITV | 0.00295 |
| HMPPENVSVRREQIAEDKKTVYNVWVTKGNKTVLYSKVVYAWGGVYFFRDLNTSISENMYKQADAGLVN | 0.0555 |
| HMSVLEHVSGNVRRLRLQAGLSQEALARAASVSRRMLVGIESGDVNVSLSTLDRIAAALGVLFPDLVQAP | -1.52 |
| HMEQWVSIEVEPGIRLDVALTEATQKSRSFIQNLIAEQRVLVNGQPKKANYKVRPGDHVELNYPEPT | 0.0849 |
| HMKKGATVSGVIVEKTKKSLIIDLGAKTEGVVADKEFEFAIDFVKELKKGDEVKAIVISTDNDKGQVVLSL | -0.155 |

| Sequence | soluble fraction (log2) |
| --- | --- |
| HMAETLRLVGATNLNTLARARHPDDLAARNEFRRAIAQANPALFAGKSKVGSVSLPAGTVLALPPEV | 0.184 |
| HMIAGHLQIKNDYYYMVLSYTDSDGKRKQPWIPTGLPMKGNKKRAEKMLIETRQTYVPPVSSG | -3.27 |
| HMRPSGTAGILRYLSSGAIRGIGATTAQRLVSEFGEKTLDVMENEPERVAMLKGISKSKAEDFSLQLKQS | 0.0105 |
| HMDSNFNYELVGFRLDDMGLNSSVIVKRNNQEFVIQKGDLLENKYLLNSVTKKNINFSYLGKNYQI | -0.789 |
| HMINSFDYLQAIFTELMKSQSKMTNQDAAKRLFMQGKVAVSNRDREGLRMVLAQLVTLLPKEELGGLSTVS | 0.0921 |
| HMGMESFWNRVANLLNTSTVVELAQILDVKRSTLSSWIHSDRRPPMEVLLKITRLTGVDIHRLE | -1.56 |
| HMQDLEIKINLGMTYYEVREAIGSPDIIDKINQYGRDFQMWTYYIDDKTKRYYFEDHLLTKI | -3.33 |
| HMKEEVSVPDIKGMTYEEAEAKLAKYDLEIEKGETVKASEQYEEGQISSQEPEAGSKVKEGSTIVVDVVE | 0.316 |
| HMSSPRAIYSAIQKAVGEDMILYREDVQIILDKLDADLLVDDILEKMELDGTLVRQRDGTWLLL | -0.658 |
| HMTSVRVPVKKEIWFWAIKESQRDLNEILARFPKMDKWINQEENPTFNQLEKVAKFLRVPFGYMFLDKPPK | -0.931 |
| HMSENEIDELRRRFAREAMALMERKGEEVSRTRLAAELSVARARIDAVFPEESDLLEAVTAEWFA | -0.562 |
| HMNEPMITEVKRINYGSIKEIAKNLDVFKGKNGTVIIDERTNTLILTDLSENIEKMLWSIEITD | -0.896 |
| HMNERTKIPLRKIEIGQAVYVDTLEKVGTVIDIQGKQFKVDLAGLPITVAARNLFYPLPQEAKP | -0.106 |
| HMTGENWAERSRQLAAAGLLVLGKEAQEKIASLPNLIPLIEAAAASDTRLLNAQTIDELLSFVPTEETI | -0.05 |
| HMKSIFIRADELAAELDVSKALAYKMINQWNEELKAKGYTTVGGRVSRQYYYEKIYGAENVFDF | -2.37 |
| HMSPAVEDYLEQIHNLIAQKGYARVVDIAGNLKISQASVTNMIQRMDADGLVVYERYRGVVLTETGRK | -1.3 |
| HMGLWWTEAERELVKTTIEQLYKDTNIAEPVDSKNLRASIPALKAMRTGLSAENQARVDTLLGALQV | -0.157 |
| HMLKNKSTGNINETKAILELALNHSHFKVFDNRDMTVTFKNLATQFTTMQRILVQMFFPLPAGVELIIE | ≥ 0.62 |
